{"source": "the supplement of paper PMC9112550", "about": "“Optimization of the antimicrobial peptide Bac7 by deep mutational scanning” (BMC Biology, 2022);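 also: peptides expressed intracellularly from a pBAD plasmid library in pooled LB shake-flask culture, induced with 0.3% L-arabinose, DNA abundance read by NGS, three biological replicates, DESeq2 with apeglm shrinkage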"}
{"system": "Escherichia coli TOP10", "test": "shrunken log2 fold change of peptide-encoding DNA abundance (4.5 h post-induction vs induction); higher = less antimicrobial activity (less host growth inhibition)", "conditions": "time post-induction: 4.5 h; library: site-saturation at positions 5, 18, 19, 20"}
{"sequence": "RRIRNRPPRLPRPRPRPWVLPRP", "shrunken log2 fold change": 0.0737}
{"sequence": "RRIRHRPPRLPRPRPRPLLMPRP", "shrunken log2 fold change": -0.0151}
{"sequence": "RRIRLRPPRLPRPRPRPYSAPRP", "shrunken log2 fold change": -0.693}
{"sequence": "RRIRNRPPRLPRPRPRPWWNPRP", "shrunken log2 fold change": -0.141}
{"sequence": "RRIRFRPPRLPRPRPRPFLRPRP", "shrunken log2 fold change": -0.313}
{"sequence": "RRIRFRPPRLPRPRPRPTCQPRP", "shrunken log2 fold change": -0.0887}
{"sequence": "RRIRSRPPRLPRPRPRPETHPRP", "shrunken log2 fold change": 0.0531}
{"sequence": "RRIRGRPPRLPRPRPRPREIPRP", "shrunken log2 fold change": 1.1}
{"sequence": "RRIRLRPPRLPRPRPRPGALPRP", "shrunken log2 fold change": 0.0546}
{"sequence": "RRIRFRPPRLPRPRPRPQQKPRP", "shrunken log2 fold change": 0.0925}
{"sequence": "RRIRMRPPRLPRPRPRPQKFPRP", "shrunken log2 fold change": -0.000921}
{"sequence": "RRIRARPPRLPRPRPRPVCHPRP", "shrunken log2 fold change": 0.321}
{"sequence": "RRIRERPPRLPRPRPRPIVPPRP", "shrunken log2 fold change": -0.25}
{"sequence": "RRIRGRPPRLPRPRPRPVTGPRP", "shrunken log2 fold change": 0.21}
{"sequence": "RRIRFRPPRLPRPRPRPWWNPRP", "shrunken log2 fold change": -0.26}
{"sequence": "RRIRFRPPRLPRPRPRPRGVPRP", "shrunken log2 fold change": 0.0819}
{"sequence": "RRIRRRPPRLPRPRPRPQVRPRP", "shrunken log2 fold change": -0.0161}
{"sequence": "RRIRLRPPRLPRPRPRPEWSPRP", "shrunken log2 fold change": -0.178}
{"sequence": "RRIRTRPPRLPRPRPRPIKGPRP", "shrunken log2 fold change": -0.331}
{"sequence": "RRIRSRPPRLPRPRPRPVSVPRP", "shrunken log2 fold change": 0.0162}
{"sequence": "RRIRWRPPRLPRPRPRPSSIPRP", "shrunken log2 fold change": -0.338}
{"sequence": "RRIRWRPPRLPRPRPRPLARPRP", "shrunken log2 fold change": 0.432}
{"sequence": "RRIRARPPRLPRPRPRPTKCPRP", "shrunken log2 fold change": 0.141}
{"sequence": "RRIRGRPPRLPRPRPRPAKKPRP", "shrunken log2 fold change": 0.00559}
{"sequence": "RRIRVRPPRLPRPRPRPRAYPRP", "shrunken log2 fold change": -0.224}
{"sequence": "RRIRMRPPRLPRPRPRPCNDPRP", "shrunken log2 fold change": -0.165}
{"sequence": "RRIRQRPPRLPRPRPRPFQHPRP", "shrunken log2 fold change": -0.117}
{"sequence": "RRIRFRPPRLPRPRPRPWDTPRP", "shrunken log2 fold change": -0.421}
{"sequence": "RRIRDRPPRLPRPRPRPLCPPRP", "shrunken log2 fold change": -0.00491}
{"sequence": "RRIRRRPPRLPRPRPRPEDDPRP", "shrunken log2 fold change": 1.11}
{"sequence": "RRIRDRPPRLPRPRPRPHKQPRP", "shrunken log2 fold change": 0.00319}
{"sequence": "RRIRPRPPRLPRPRPRPARPPRP", "shrunken log2 fold change": 0.626}
{"sequence": "RRIRQRPPRLPRPRPRPSNIPRP", "shrunken log2 fold change": -0.286}
{"sequence": "RRIRDRPPRLPRPRPRPLSMPRP", "shrunken log2 fold change": -0.283}
{"sequence": "RRIRQRPPRLPRPRPRPLLCPRP", "shrunken log2 fold change": 0.126}
{"sequence": "RRIRERPPRLPRPRPRPSNIPRP", "shrunken log2 fold change": -0.662}
{"sequence": "RRIRARPPRLPRPRPRPHLNPRP", "shrunken log2 fold change": 0.102}
{"sequence": "RRIRKRPPRLPRPRPRPMYNPRP", "shrunken log2 fold change": -0.315}
{"sequence": "RRIRARPPRLPRPRPRPGCNPRP", "shrunken log2 fold change": 0.252}
{"sequence": "RRIRWRPPRLPRPRPRPRLWPRP", "shrunken log2 fold change": 0.414}
{"sequence": "RRIRHRPPRLPRPRPRPIFSPRP", "shrunken log2 fold change": -0.176}
{"sequence": "RRIRLRPPRLPRPRPRPVMDPRP", "shrunken log2 fold change": -0.0398}
{"sequence": "RRIRKRPPRLPRPRPRPGQAPRP", "shrunken log2 fold change": 0.383}
{"sequence": "RRIRGRPPRLPRPRPRPNPSPRP", "shrunken log2 fold change": 0.294}
{"sequence": "RRIRERPPRLPRPRPRPMQGPRP", "shrunken log2 fold change": -0.0783}
{"sequence": "RRIRCRPPRLPRPRPRPFKNPRP", "shrunken log2 fold change": -0.967}
{"sequence": "RRIRDRPPRLPRPRPRPQHSPRP", "shrunken log2 fold change": -0.312}
{"sequence": "RRIRRRPPRLPRPRPRPCFNPRP", "shrunken log2 fold change": -0.271}
{"sequence": "RRIRYRPPRLPRPRPRPIERPRP", "shrunken log2 fold change": 0.0253}
{"sequence": "RRIRQRPPRLPRPRPRPWMWPRP", "shrunken log2 fold change": -0.457}
{"sequence": "RRIRRRPPRLPRPRPRPKRHPRP", "shrunken log2 fold change": 0.227}
{"sequence": "RRIRHRPPRLPRPRPRPTIMPRP", "shrunken log2 fold change": -0.362}
{"sequence": "RRIRQRPPRLPRPRPRPDKSPRP", "shrunken log2 fold change": -0.0319}
{"sequence": "RRIRIRPPRLPRPRPRPFCGPRP", "shrunken log2 fold change": -0.228}
{"sequence": "RRIRKRPPRLPRPRPRPLKMPRP", "shrunken log2 fold change": 0.0436}
{"sequence": "RRIRVRPPRLPRPRPRPCCKPRP", "shrunken log2 fold change": 0.905}
{"sequence": "RRIRPRPPRLPRPRPRPRKAPRP", "shrunken log2 fold change": 0.0787}
{"sequence": "RRIRRRPPRLPRPRPRPCAFPRP", "shrunken log2 fold change": 0.123}
{"sequence": "RRIRGRPPRLPRPRPRPMWMPRP", "shrunken log2 fold change": 0.118}
{"sequence": "RRIRPRPPRLPRPRPRPHLHPRP", "shrunken log2 fold change": -0.0768}
{"sequence": "RRIRPRPPRLPRPRPRPIYCPRP", "shrunken log2 fold change": -0.102}
{"sequence": "RRIRSRPPRLPRPRPRPWFAPRP", "shrunken log2 fold change": -0.00302}
{"sequence": "RRIRTRPPRLPRPRPRPRQKPRP", "shrunken log2 fold change": 0.0911}
{"sequence": "RRIRPRPPRLPRPRPRPRNGPRP", "shrunken log2 fold change": -0.0237}
{"sequence": "RRIRIRPPRLPRPRPRPWTGPRP", "shrunken log2 fold change": -0.0257}
{"sequence": "RRIRHRPPRLPRPRPRPCLMPRP", "shrunken log2 fold change": -0.0298}
{"sequence": "RRIRMRPPRLPRPRPRPYSRPRP", "shrunken log2 fold change": -0.253}
{"sequence": "RRIRVRPPRLPRPRPRPLRWPRP", "shrunken log2 fold change": 0.63}
{"sequence": "RRIRTRPPRLPRPRPRPSMLPRP", "shrunken log2 fold change": -0.204}
{"sequence": "RRIRPRPPRLPRPRPRPPVLPRP", "shrunken log2 fold change": -0.0339}
{"sequence": "RRIRYRPPRLPRPRPRPEFVPRP", "shrunken log2 fold change": -0.327}
{"sequence": "RRIRRRPPRLPRPRPRPSMMPRP", "shrunken log2 fold change": -0.216}
{"sequence": "RRIRKRPPRLPRPRPRPGVGPRP", "shrunken log2 fold change": 0.818}
{"sequence": "RRIRHRPPRLPRPRPRPERQPRP", "shrunken log2 fold change": -0.0882}
{"sequence": "RRIRLRPPRLPRPRPRPYYWPRP", "shrunken log2 fold change": -0.172}
